Test results taken from article PMC6753478 (Nucleic Acids Research, 2019).

Biological target: T1, FLAG-UPF1 (UniProt Q92900-2 1-1118)
T1 sequence (looked up): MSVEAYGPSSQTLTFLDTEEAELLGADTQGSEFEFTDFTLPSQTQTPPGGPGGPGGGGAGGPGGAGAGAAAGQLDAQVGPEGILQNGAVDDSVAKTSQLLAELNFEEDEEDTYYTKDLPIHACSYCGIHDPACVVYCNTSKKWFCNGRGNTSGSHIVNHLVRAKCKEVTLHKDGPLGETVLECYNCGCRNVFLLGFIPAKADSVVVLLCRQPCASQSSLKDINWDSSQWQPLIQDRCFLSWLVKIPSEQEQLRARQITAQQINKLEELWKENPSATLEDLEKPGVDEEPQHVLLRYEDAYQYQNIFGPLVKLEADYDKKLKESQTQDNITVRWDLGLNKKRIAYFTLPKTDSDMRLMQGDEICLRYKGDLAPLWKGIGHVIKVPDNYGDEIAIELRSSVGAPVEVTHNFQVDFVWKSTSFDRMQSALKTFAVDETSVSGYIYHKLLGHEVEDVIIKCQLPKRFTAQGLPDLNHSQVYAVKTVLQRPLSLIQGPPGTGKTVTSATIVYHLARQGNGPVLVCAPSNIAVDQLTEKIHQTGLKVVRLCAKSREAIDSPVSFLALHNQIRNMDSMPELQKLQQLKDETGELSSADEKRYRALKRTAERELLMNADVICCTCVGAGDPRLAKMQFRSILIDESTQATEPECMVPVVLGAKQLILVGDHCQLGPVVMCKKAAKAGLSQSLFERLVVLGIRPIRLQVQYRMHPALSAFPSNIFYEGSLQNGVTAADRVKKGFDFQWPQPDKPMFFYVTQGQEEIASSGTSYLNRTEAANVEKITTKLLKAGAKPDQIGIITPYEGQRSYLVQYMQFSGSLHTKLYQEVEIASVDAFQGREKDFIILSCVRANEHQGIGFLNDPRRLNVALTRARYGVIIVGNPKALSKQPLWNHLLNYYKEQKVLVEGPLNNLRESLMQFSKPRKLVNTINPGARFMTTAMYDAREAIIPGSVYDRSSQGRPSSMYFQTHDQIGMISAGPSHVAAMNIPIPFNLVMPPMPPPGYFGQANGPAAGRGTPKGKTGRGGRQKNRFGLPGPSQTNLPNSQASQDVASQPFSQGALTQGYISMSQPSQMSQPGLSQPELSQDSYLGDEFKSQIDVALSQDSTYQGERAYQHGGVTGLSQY
Test: co-IP

fold change of the association after IR exposure, against untreated cells: 3.1 fold
B1: staufen1 (STAU1), endogenous (natural protein, human (endogenous in HEK293T), UniProt O95793 1-577, looked up)
chain: MSQVQVQVQNPSAALSGSQILNKNQSLLSQPLMSIPSTTSSLPSENAGRPIQNSALPSASITSTSAAAESITPTVELNALCMKLGKKPMYKPVDPYSRMQSTYNYNMRGGAYPPRYFYPFPVPPLLYQVELSVGGQQFNGKGKTRQAAKHDAAAKALRILQNEPLPERLEVNGRESEEENLNKSEISQVFEIALKRNLPVNFEVARESGPPHMKNFVTKVSVGEFVGEGEGKSKKISKKNAAIAVLEELKKLPPLPAVERVKPRIKKKTKPIVKPQTSPEYGQGINPISRLAQIQQAKKEKEPEYTLLTERGLPRRREFVMQVKVGNHTAEGTGTNKKVAKRNAAENMLEILGFKVPQAQPTKPALKSEEKTPIKKPGDGRKVTFFEPGSGDENGTSNKEDEFRMPYLSHQQLPAGILPMVPEVAQAVGVSQGHHTKDFTRAAPNPAKATVTAMIARELLYGGTSPTAETILKNNISSGHVPHGPLTRPSEQLDYLSRVQGFQVEYKDFPKNNKNEFVSLINCSSQPPLISHGIGKDVESCHDMAALNILKLLSELDQQSTEMPRTGNGPMSVCGRC
